The values below come from US20250136677A1 (ZOETIS SERVICES, published 2025).

Experiment [1] concerns the target T1, wildtype feline IL-31 protein (Feline_IL31_wildtype) (feline).
T1 chain: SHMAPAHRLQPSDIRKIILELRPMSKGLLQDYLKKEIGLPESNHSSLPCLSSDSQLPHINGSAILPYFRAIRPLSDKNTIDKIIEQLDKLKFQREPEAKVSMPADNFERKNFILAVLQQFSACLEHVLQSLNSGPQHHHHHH
The experiment is described as follows: cell-based or functional assay.

Experiment [2] deals with T2, canine IL-31 protein (Canine_IL31) (canine).
T2 chain: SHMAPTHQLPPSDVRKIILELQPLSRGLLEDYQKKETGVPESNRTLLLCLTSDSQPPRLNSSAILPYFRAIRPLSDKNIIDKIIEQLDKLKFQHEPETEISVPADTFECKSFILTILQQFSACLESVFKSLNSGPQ
Nature of the experiment: SPR (Biacore), IL-31 on chip, 1:1 fit. For orientation: SPR reads the build-up and loss of mass on a sensor chip optically.

The target of experiment [3] is T1, wildtype feline IL-31 protein …. Nature of the experiment: SPR (Biacore), IL-31 on chip, 1:1 fit. An outline of the steps: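 IL-31 was amine-coupled (NHS/EDC) to the chip at 5 μg/mL and quenched with ethanolamine, and candidate mAbs were flowed over it as analytes. Binding curves were fitted to a 1:1 model.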
The target of experiment [4] is T3, mutant feline IL-31 11E12 protein (Feline_IL31_11E12_mutant) (feline).
T3 construct: also called feline 11E12 mutant; 11E12 IL-31 mutant
T3 chain: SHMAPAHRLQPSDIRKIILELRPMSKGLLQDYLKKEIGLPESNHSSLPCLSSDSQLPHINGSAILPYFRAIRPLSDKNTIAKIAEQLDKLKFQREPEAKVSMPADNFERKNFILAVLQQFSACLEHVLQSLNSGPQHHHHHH
The experiment is described as follows: indirect ELISA, feline IL-31 11E12 mutant coated. An excerpt: To determine the impact of mAbs 11E12 and 15H05 ability to bind these mutant forms of feline IL-31, an indirect ELISA was run using the mutants directly coated on to an immunoassay plate. […] When mutant 11E12 is used as a capture protein, binding of mAb 11E12 is highly attenuated and binding of mAb 15H05 is partially attenuated. […] The minor attenuation of mAb 15H05s binding to the 11E12 mutant is likely due to translational effects of the mutations from movement of the two front helices effecting the 15H05 binding site. […] Unlike the 11E12 mutant, the changes in the random coil recognized by mAb 15H05 (mutant 15H05) had no impact on mAb 11E12 binding further supporting the distinction between the two epitopes (FIG. 6C).

In experiment [5] the target is T2, canine IL-31 protein (Canine_IL31).
Experiment [6] has as its target T1, wildtype feline IL-31 protein …. The experiment is described as follows: cell-based or functional assay.
The target in experiment [7] is T2, canine IL-31 protein (Canine_IL31). The experiment is described as follows: cell-based or functional assay.
The target is the same in experiment [8]. The experiment is described as follows: SPR (Biacore), IL-31 protein as surface capture.
Experiment [9] addresses T4, mutant feline IL-31 15H05 protein (Feline_IL31_15H05_mutant) (feline).
T4 construct: also called feline 15H05 mutant; 15H05 IL-31 mutant
T4 chain: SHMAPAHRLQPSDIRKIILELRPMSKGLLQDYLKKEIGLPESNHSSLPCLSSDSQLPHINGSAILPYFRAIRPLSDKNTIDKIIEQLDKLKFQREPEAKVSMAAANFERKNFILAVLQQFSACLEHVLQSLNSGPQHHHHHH
The experiment is described as follows: Biacore, IL-31 protein as surface capture. The protocol:
(§1) The affinity with which candidate mAbs bind canine and feline IL-31 was determined using surface plasmon resonance (SPR) on a Biacore system (Biocore Life Sciences (GE Healthcare), Uppsala, Sweden). To avoid affinity differences associated with differential surface preparation that can occur when immobilizing antibodies to surfaces; a strategy was employed where IL-31 was directly conjugated to the surface. Immobilization was obtained by amine coupling 5 μg/mL IL-31 using N-hydroxysuccinimide (NHS)/1-Ethyl-3-(3-dimethylaminopropyl) carbodiimide (EDC) chemistry. Chips were quenched with ethanolamine and the affinity with which all candidate mAbs bound to the immobilized IL-31 was evaluated. All curves were fit to a 1:1 model. […] Results for affinity measurements are described herein.
(§2) Table 1 below describes the results for biacore analysis using multiple species of IL-31 protein as a surface capture.

The target of experiment [10] is T1, wildtype feline IL-31 protein …. Nature of the experiment: SPR (Biacore), IL-31 protein as surface capture. The method, then:
as §1, §2

In experiment [11] the target is T3, mutant feline IL-31 11E12 protein …. The experiment is described as follows: SPR (Biacore), IL-31 protein as surface capture. The method, then: as §1, §2
Experiment [12] addresses T5, equine IL-31 protein (Equine_IL31) (equine).
T5 construct: Recombinant equine IL-31
T5 chain: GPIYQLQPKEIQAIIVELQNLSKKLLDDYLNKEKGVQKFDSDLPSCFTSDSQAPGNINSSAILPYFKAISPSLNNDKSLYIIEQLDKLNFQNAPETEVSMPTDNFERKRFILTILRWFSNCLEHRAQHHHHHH
The experiment is described as follows: SPR (Biacore), IL-31 protein as surface capture. The method, then:
as §1, §2

The target in experiment [13] is T1, wildtype feline IL-31 protein …. The experiment is described as follows: cell-based or functional assay.
For experiment [14] the target is unchanged. Nature of the experiment: cell-based or functional assay.
For experiment [15] the target is unchanged. The experiment is described as follows: Biacore, feline IL-31 chip, mAb 100 nM, share of points within parent mean +/-3 SD. Also noted: key: % of mutant data points within parent mAb mean ±3 SD. The text has this: The mean response unit of four replicates of the parent mAb+/−3 standard deviations was used to generate parameters to define a threshold of response units comprising both the on- and off-rates antibody binding (FIG. 22). The percentage of data points for each mutant fell within this threshold was then used to define a “% similarity score” (FIG. 23).

The target is the same in experiment [16]. The experiment is described as above. More on the design: key: % of mutant data points within parent mAb mean ±3 SD.

Read-outs that look alike come from different tables or passages of the source.

B1: mouse:feline 11E12 chimera (antibody)
heavy: QVQLQQSGAELVKPGASVKLSCKASGYTFKYYDINWVRQRPEQGLEWIGWIFPGDGGTKYNETFKGKATLTTDKSSSTAYMQLSRLTSEDSAVYFCARGGTSVIRDAMDYWGQGTSVTVSSASTTAPSVFPLAPSCGTTSGATVALACLVLGYFPEPVTVSWNSGALTSGVHTFPAVLQASGLYSLSSMVTVPSSRWLSDTFTCNVAHPPSNTKVDKTVRKTDHPPGPKPCDCPKCPPPEAAGAPSIFIFPPKPKDTLSISRTPEVTCLVVDLGPDDSDVQITWFVDNTQVYTAKTSPREEQFNSTYRVVSVLPILHQDWLKGKEFKCKVNSKSLPSPIERTISKAKGQPHEPQVYVLPPAQEELSRNKVSVTCLIKSFHPPDIAVEWEITGQPEPENNYRTTPPQLDSDGTYFVYSKLSVDRSHWQRGNTYTCSVSHEALHSHHTQKSLTQSPGK
light: DIVLTQSPASLAVSLGQRATISCRASESVDNYGISFMHWYQQKPGQPPKLLIYRASNLESGIPARFSGSGSRTDFTLTINPVETDDVATYYCQQSNKDPLTFGAGTKLELKRSDAQPSVFLFQPSLDELHTGSASIVCILNDFYPKEVNVKWKVDGVVQNKGIQESTTEQNSKDSTYSLSSTLTMSSTEYQSHEKFSCEVTHKSLASTLVKSFQRSECQRE
notes: Mouse variable regions on feline IgG constant regions; made in HEK 293 cells
Consider B1, for which, in [1], the “IC50, inhibition of feline IL-31-induced STAT3 phosphorylation, canine DH82 cells” value was 4.4 µg/mL and the “IC50, inhibition of feline IL-31-induced STAT3 phosphorylation, feline FCWF4 cells” value stood at 3.45 µg/mL. In experiment [2], this molecule yielded a Kd of 0.000127 nM, a koff of 8.7e-08 s⁻¹ and a kon of 684000 M⁻¹ s⁻¹. Moreover, in experiment [3], the equilibrium dissociation constant (Kd) was 0.13 nM, the koff is 5.06e-05 s⁻¹ and the kon came to 388000 M⁻¹ s⁻¹. For the same molecule, the binding result in experiment [4] is “binds”.

B2: ZTS-361 (antibody)
heavy: QVLLVQSGAEVRTPGASVKIFCKASGYSFTSYTIHWLRQAPAQGLEWMGNINPTSGYTENNQRFKDRLTLTADTSTNTAYMELSSLRSADTAMYYCARWGFKYDGEWSFDVWGAGTTVTVSSASTTAPSVFPLAPSCGTTSGATVALACLVLGYFPEPVTVSWNSGALTSGVHTFPAVLQASGLYSLSSMVTVPSSRWLSDTFTCNVAHPPSNTKVDKTVRKTDHPPGPKPCDCPKCPPPEAAGAPSIFIFPPKPKDTLSISRTPEVTCLVVDLGPDDSDVQITWFVDNTQVYTAKTSPREEQFNSTYRVVSVLPILHQDWLKGKEFKCKVNSKSLPSPIERTISKAKGQPHEPQVYVLPPAQEELSRNKVSVTCLIKSFHPPDIAVEWEITGQPEPENNYRTTPPQLDSDGTYFVYSKLSVDRSHWQRGNTYTCSVSHEALHSHHTQKSLTQSPGK
light: EIQMTQSPSSLSASPGDRVTITCRASQGISIWLSWYQQKPGNIPKVLINKASNLHIGVPSRFSGSGSGTDFTLTISSLEPEDAATYYCLQSQTYPLTFGGGTKLEIKRSDAQPSVFLFQPSLDELHTGSASIVCILNDFYPKEVNVKWKVDGVVQNKGIQESTTEQNSKDSTYSLSSTLTMSSTEYQSHEKFSCEVTHKSLASTLVKSFQRSECQRE
As to B2, the IC50, inhibition of canine IL-31-induced STAT3 phosphorylation, feline FCWF4 cells in experiment [5] was determined as 38.8 µg/mL. Further, in experiment [6], the “Inhibition of IL-31 induced pSTAT3 IC50 (µg/ml), Feline IL-31 on Feline FCWF-4 cells” value is 8.85 µg/ml. The molecule also registered an Inhibition of IL-31 induced pSTAT3 IC50 (µg/ml), Canine IL-31 on Canine DH82 cells in [7] of 23 µg/ml. Also, the Kd in experiment [8] is 0.00241 nM; in experiment [3], 0.474 nM; in [10], 0.625 nM; in [11], 17.2 nM; in experiment [12], 0.625 nM. For the same molecule, in experiment [9], the binding result is listed as “no binding”. The koff in experiment [3] is 2.18e-05 s⁻¹. In addition, in experiment [3], the kon came out at 46000 M⁻¹ s⁻¹.

B3: ZTS-1505 (antibody)
heavy: QVLLVQSGAEVRTPGASVKIFCKASGYSFTSYTIHWLRQAPAQGLEWMGNINPTSGYTENNQRFKDRLTLTADTSTNTAYMELSSLRSADTAMYYCARWGFKYDGEWSFDVWGAGTTVTVSSASTTAPSVFPLAPSCGTTSGATVALACLVLGYFPEPVTVSWNSGALTSGVHTFPAVLQASGLYSLSSMVTVPSSRWLSDTFTCNVAHPPSNTKVDKTVRKTDHPPGPKPCDCPKCPPPEAAGAPSIFIFPPKPKDTLSISRTPEVTCLVVDLGPDDSDVQITWFVDNTQVYTAKTSPREEQFNSTYRVVSVLPILHQDWLKGKEFKCKVNSKSLPSPIERTISKAKGQPHEPQVYVLPPAQEELSRNKVSVTCLIKSFHPPDIAVEWEITGQPEPENNYRTTPPQLDSDGTYFVYSKLSVDRSHWQRGNTYTCSVSHEALHSHHTQKSLTQSPGK
light: EIQMTQSPSSLSASPGDRVTITCRASQGISIWLSWYQQKPGNIPKVLINKASNLHIGVPSRFSGSGSGTDFTLTISSLEPEDAATYYCLQSQTYPLTFGGGTKLEIKRSDAQPSVFLFQPSLDELHTGSASIVCILNDFYPKEVNVKWKVDGVVQNKGIQESTTEQNSKDSTYSLSSTLTMSSTEYQSHEKFSCEVTHKSLASTLVKSFQRSEC
For B3, the “Inhibition of IL-31 induced pSTAT3 IC50 (µg/ml), Feline IL-31 on Feline FCWF-4 cells” value in experiment [6] was determined as 4.53 µg/ml. The Inhibition of IL-31 induced pSTAT3 IC50 (µg/ml), Canine IL-31 on Canine DH82 cells in [7] came to 21.8 µg/ml. The “% Inhibition Relative to Parent (pSTAT, FCWF-4 cells)” value in experiment [13] and in experiment [14] was 100% each time. The Kd stood at 0.00183 nM in experiment [8], 0.575 nM in [10], 19.5 nM in experiment [11] and 0.575 nM in experiment [12]. Besides, in experiment [9], the binding result was “no binding”. Besides, the “Binding Similarity score” value in experiment [15] and in experiment [16] was 97 in each case.

For orientation: Kd means a measure of binding affinity in units of concentration. As usually defined, the koff is the first-order rate constant of dissociation. One may read the kon as a measure of how fast the partners come together.
